{"source": "patent US20100215651A1", "about": "(GLENMARK PHARMACEUTICALS S A, published 2010)", "binders": {"B1": {"name": "VH16-R94K/VL43 (antibody, human IgG1)", "heavy": "not shown", "VL": "DIVMTQTPSSLSASVGDRVTITCRASQDISKYLNWYQQKPGKAPKLLIYHTSRLHSGVPSRFSGSGSGTDFTLTISSLQPEDFATYYCQQGNTLPYTFGPGTKVDIKRTVAA", "notes": "Full-length human IgG1/kappa"}, "B2": {"name": "VH16 R94K VL43 P44I (antibody, human IgG1, V domains shown)", "VH": "QVQLVQSGGGVVQPGRSLRLSCAASGVSLPDYGVSWVRQAPGKGLEWVAVIWGSETTYYNSALKSRFTISRDNSKNTLYLQMNSLRAEDTAVYYCAKHYYYGGSYAMDYWGQGTLVTVSS", "VL": "DIVMTQTPSSLSASVGDRVTITCRASQDISKYLNWYQQKPGKAIKLLIYHTSRLHSGVPSRFSGSGSGTDFTLTISSLQPEDFATYYCQQGNTLPYTFGPGTKVDIKR", "notes": "Full-length human IgG1/kappa; substitutions in Kabat numbering"}, "B3": {"name": "VH16-R94K/VL43-V3Q-T7S-P44I-N92A (antibody, human IgG1, kappa, V domains shown)", "VH": "B2 VH", "VL": "B2 VL with V3Q, T7S, N92A", "notes": "human IgG1/kappa"}, "B4": {"name": "VH16 Y32F/R94K/Y97F/VL43 V3Q/T7S/Y32F/N92A (antibody, human IgG1, name in Kabat numbering, V domains shown)", "VH": "B2 VH with Y32F, Y100F", "VL": "B2 VL with V3Q, T7S, Y32F, I44P, N92A", "notes": "substitutions in Kabat numbering"}}, "key": {"[1]": {"biological_target": "T1, human CD19 (human, UniProt P15391 20-556)", "T1 construct": "CD19 as expressed on Raji, NALM-6 and SU-DHL-6 cells; also called CD19 antigen; B-cell surface antigen B4", "T1 sequence": "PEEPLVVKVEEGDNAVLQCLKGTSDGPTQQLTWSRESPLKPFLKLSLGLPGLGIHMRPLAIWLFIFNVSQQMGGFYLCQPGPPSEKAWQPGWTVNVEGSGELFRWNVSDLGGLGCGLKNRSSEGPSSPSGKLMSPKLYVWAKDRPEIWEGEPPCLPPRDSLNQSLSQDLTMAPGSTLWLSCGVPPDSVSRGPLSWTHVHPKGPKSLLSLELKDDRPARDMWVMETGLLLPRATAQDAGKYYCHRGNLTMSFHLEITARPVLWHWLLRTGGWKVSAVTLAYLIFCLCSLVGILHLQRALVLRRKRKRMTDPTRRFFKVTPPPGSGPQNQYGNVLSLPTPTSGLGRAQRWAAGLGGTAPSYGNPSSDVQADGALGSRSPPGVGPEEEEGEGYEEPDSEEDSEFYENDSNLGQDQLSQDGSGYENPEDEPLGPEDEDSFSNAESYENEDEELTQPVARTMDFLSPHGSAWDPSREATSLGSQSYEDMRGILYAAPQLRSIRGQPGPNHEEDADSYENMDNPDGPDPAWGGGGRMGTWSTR", "experiment": "flow cytometry, Raji cells, MPF vs chimeric FMC63"}, "[2]": {"biological_target": "T1, human CD19", "experiment": "flow cytometry, Raji cells, MPF vs chimeric FMC63", "protocol": "(§1) Binding of the CD19 humanized monoclonal antibodies by flow cytometry to Raji tumor cells (human Burkitt lymphoma, DSMZ ACC319), NALM-6 (human B cell precursor leukemia, DSMZ ACC128) and SU-DHL-6 (human B cell lymphoma, DSMZ ACC572) (all cell lines from DSMZ Braunschweig, Deutschland) was assessed. Cells were incubated with serial dilutions of each humanized monoclonal antibody. An irrelevant human IgG1 was used as a negative control. The cells were washed and detected by a phycoerythrin-labeled (PE) anti-human secondary antibody (eBioscience, CA, USA) and analyzed by flow cytometry. […] From MFI versus antibody concentration curves, Mid-Point Fluorescence (MPF) value for each anti-CD19 humanized antibody was calculated using the software GraphPad Prism 5 (CA, USA).", "remark": "listed apart in the source"}, "[3]": {"biological_target": "T1, human CD19", "experiment": "flow cytometry, Raji cells, MPF vs chimeric FMC63", "protocol": "as §1", "remark": "listed apart in the source"}, "[4]": {"biological_target": "T1, human CD19", "experiment": "flow cytometry, NALM-6 cells, MPF vs chimeric FMC63", "protocol": "as §1"}, "[5]": {"biological_target": "T1, human CD19", "experiment": "Scatchard analysis, Eu3+-labelled antibody on Raji cells", "protocol": "(§2) Raji cells as described in Example 2 were grown in RPMI-1640 medium (Chemie Brunschwig AG, PAA, Basel, Switzerland) supplemented with 10% fetal bovine serum (FBS, Chemie Brunschwig AG, PAA, Basel, Switzerland), 2 mM ultraglutamine 1 (Lonza, Verviers, Belgium) and 1% penicillin/streptomycin (Chemie Brunschwig AG, PAA, Basel, Switzerland). The cells were washed with the same culture medium and adjusted to a final concentration of 1×10⁶ cells/ml. A 100 μl volume of Raji cells was seeded in U-bottomed 96-well plate. […] Cells were incubated with Eu³⁺-antibody for 15 minutes on ice to reach equilibrium. The amount of free Eu³⁺-labelled antibodies were measured by transferring aliquots of cell-free supernatant (volumes were empirically adjusted depending on antibody concentration; cells were spun at 1300 RPM for 2 min) into a fresh plate containing 100 μl of Delfia solution (PerkinElmer, MA, USA; an enhancer of Eu³⁺ fluorescence). To ensure complete removal of the supernatant, cells were spin down once more at 1300 RPM for 2 minutes. After the second centrifugation, the supernatant was discarded, and cells were washed twice with 200 μl of cold binding buffer (PBS-2.5% FBS-0.05% NaN₃). Cell pellets were resuspended into 100 μl of Delfia solution."}, "[6]": {"biological_target": "T1, human CD19", "experiment": "competition with 0.2 nM Eu3+-labelled chimeric FMC63 on Raji cells", "protocol": "To that aim, 100 μl volumes of Raji cells in RPMI-1640 medium (Chemie Brunschwig AG, PAA, Basel, Switzerland) supplemented with 10% fetal bovine serum (FBS, Chemie Brunschwig AG, PAA, Basel, Switzerland), 2 mM ultraglutamine 1 (Lonza, Verviers, Belgium) and 1% penicillin/streptomycin (Chemie Brunschwig AG, PAA, Basel, Switzerland), prepared at concentration of 1×10⁶ cells/ml were seeded in a U-bottomed 96-well plate. […] The antibody dilutions were cooled down to 4° C. before 100 μl was taken and added on the Raji cells. […] Cells were incubated with the antibodies for 15 minutes on ice. After reaching equilibrium, the cells were centrifuged at 1300 RPM for 2 minutes and supernatant was discarded. Cell pellets were washed twice with 200 μl of cold binding buffer PBS-2.5% FBS-0.05% NaN₃, and resuspended into 100 μl of Delfia solution. Cell bound Eu³+-FMC63 was measured with time resolved fluorescence as described above. The amount of Eu³+-FMC63 (fmole) per well was determined and plotted versus the total amount of unlabelled antibody."}, "[7]": {"biological_target": "T1, human CD19", "experiment": "flow cytometry on SU-DHL-6 cells, PE-labelled anti-human secondary antibody, MFI against antibody concentration", "protocol": "as §1"}, "[8]": {"biological_target": "T1, human CD19", "experiment": "Scatchard analysis (Bound/Free against Bound) of europium-labelled antibody on Raji cells, time resolved fluorescence", "protocol": "as §2"}, "[9]": {"biological_target": "T1, human CD19", "experiment": "cell-based or functional assay"}, "[10]": {"biological_target": "T1, human CD19", "experiment": "flow cytometry on Raji cells", "protocol": "as §1"}}, "note": "Changes are numbered by the printed parent chain. In names and notes the source's numbering stands."}
{"binder": "B1", "values": [{"measurement": "relative MPF (% of chimeric FMC63)", "setting": "[1]", "value": 27.1, "unit": "%"}, {"measurement": "relative MPF (% of chimeric FMC63)", "setting": "[2]", "value": 26.8, "unit": "%"}, {"measurement": "relative MPF (% of chimeric FMC63)", "setting": "[3]", "value": 26.8, "unit": "%"}, {"measurement": "relative MPF (% of chimeric FMC63)", "setting": "[4]", "value": 14.4, "unit": "%"}, {"measurement": "Kd", "setting": "[5]", "value": 47, "unit": "nM"}, {"measurement": "Ki", "setting": "[6]", "value": 7.6, "unit": "nM"}, {"measurement": "EC50 (read off the curve)", "setting": "[7]", "value": "~0.2", "unit": "µg/mL"}]}
{"binder": "B2", "values": [{"measurement": "EC50 (read off the curve)", "setting": "[7]", "value": "~0.09", "unit": "µg/mL"}, {"measurement": "Kd", "setting": "[8]", "value": 19, "unit": "nM"}]}
{"binder": "B3", "values": [{"measurement": "ADCC: specific lysis of Raji cells by PBMC (LDH release), against IgG1 control", "setting": "[9]", "value": "≥ 3", "unit": "fold"}, {"measurement": "relative MPF (% of chimeric FMC63)", "setting": "[1]", "value": 83.3, "unit": "%"}, {"measurement": "Ki", "setting": "[6]", "value": 3.9, "unit": "nM"}, {"measurement": "EC50 (read off the curve)", "setting": "[7]", "value": "~0.09", "unit": "µg/mL"}]}
{"binder": "B4", "values": [{"measurement": "binding result", "setting": "[10]", "value": "no binding"}]}
